# Experimental data as given in the Immune Epitope Database (IEDB).
# pKd: −log10 of the molar value.
# Tests used:
# [1] = target: HLA-A*68:02; assay: IEDB peptide-MHC binding, purified MHC/direct/fluorescence; filed as Kd, often an IC50 or EC50 that approximates it; ≥ and ≤ were set here for values at or beyond the usual limits of such assays
# [2] = target: HLA-A*02:11; assay: as above; details: source organism: Zaire ebolavirus
# [3] = target: HLA-A*02:03; assay: as above; details: source organism: Zaire ebolavirus
# [4] = target: HLA-A*03:01; assay: as above; details: source organism: Zaire ebolavirus
# [5] = target: HLA-A*02:19; assay: as above; details: source organism: Zaire ebolavirus
# [6] = target: HLA-A*02:12; assay: as above; details: source organism: Zaire ebolavirus
# [7] = target: HLA-B*15:01; assay: as above; details: source organism: Reston ebolavirus - Reston
# [8] = target: HLA-A*02:16; assay: as above; details: source organism: Zaire ebolavirus
# [9] = target: HLA-B*18:01; assay: IEDB peptide-MHC binding, purified MHC/competitive/fluorescence; filed as Kd, often an IC50 or EC50 that approximates it; ≥ and ≤ were set here for values at or beyond the usual limits of such assays; details: source organism: Zaire ebolavirus
# [10] = target: HLA-B*57:01; assay: as above; details: source organism: Zaire ebolavirus
# [11] = target: HLA-B*39:01; assay: as above; details: source organism: Zaire ebolavirus
# [12] = target: HLA-A*02:01; assay: as above; details: source organism: Zaire ebolavirus
# [13] = target: HLA-A*69:01; assay: as above; details: source organism: Zaire ebolavirus
# [14] = target: HLA-B*27:03; assay: as above; details: source organism: Zaire ebolavirus
# [15] = target: HLA-B*40:01; assay: IEDB peptide-MHC binding, purified MHC/direct/fluorescence; filed as Kd, often an IC50 or EC50 that approximates it; ≥ and ≤ were set here for values at or beyond the usual limits of such assays
# [16] = target: HLA-A*01:01; assay: as above; details: source organism: Vibrio vulnificus
# [17] = target: HLA-A*26:01; assay: as above; details: source organism: Vibrio vulnificus CMCP6
# [18] = target: HLA-B*15:17; assay: as above; details: source organism: Vibrio vulnificus
# [19] = target: HLA-A*31:01; assay: as above; details: source organism: Vibrio vulnificus
# [20] = target: HLA-B*48:01; assay: as above; details: source organism: Vibrio vulnificus
# [21] = target: HLA-B*58:01; assay: as above; details: source organism: Vibrio vulnificus
# [22] = target: HLA-B*07:02; assay: as above; details: source organism: Vibrio vulnificus
# [23] = target: HLA-B*15:09; assay: as above; details: source organism: Vibrio vulnificus CMCP6
# [24] = target: HLA-B*27:05; assay: as above; details: source organism: Vibrio vulnificus
# [25] = target: HLA-B*57:01; assay: as above; details: source organism: Vibrio vulnificus
# [26] = target: HLA-B*39:01; assay: as above; details: source organism: Vibrio vulnificus CMCP6
# [27] = target: HLA-A*02:01; assay: as above; details: source organism: Vibrio vulnificus
# [28] = target: HLA-A*69:01; assay: as above; details: source organism: Vibrio vulnificus
# [29] = target: HLA-A*11:01; assay: as above; details: source organism: Vibrio vulnificus
# [30] = target: HLA-B*44:02; assay: as above; details: source organism: Vibrio vulnificus
# [31] = target: HLA-A*24:03; assay: as above; details: source organism: Zaire ebolavirus
# [32] = target: HLA-A*26:01; assay: IEDB peptide-MHC binding, purified MHC/competitive/fluorescence; filed as Kd, often an IC50 or EC50 that approximates it; ≥ and ≤ were set here for values at or beyond the usual limits of such assays; details: source organism: Zaire ebolavirus
# [33] = target: HLA-B*46:01; assay: as above; details: source organism: Zaire ebolavirus
# [34] = target: HLA-B*83:01; assay: as above; details: source organism: Zaire ebolavirus
# [35] = target: HLA-B*51:01; assay: as above; details: source organism: Zaire ebolavirus
# [36] = target: HLA-B*45:06; assay: as above; details: source organism: Zaire ebolavirus
# [37] = target: HLA-B*15:42; assay: as above; details: source organism: Zaire ebolavirus
# [38] = target: HLA-B*15:01; assay: as above; details: source organism: Zaire ebolavirus
# [39] = source organism: Zaire ebolavirus
# [40] = source organism: Vibrio vulnificus
sequence,measurement,setting,value
HLPGFGTAF,pKd,[1]; [39],≤ 4.70
same,pKd,[2],≤ 4.70
same,pKd,[3],≤ 4.70
same,pKd,[4],≤ 4.70
same,pKd,[5],≤ 4.70
same,pKd,[6],≤ 4.70
same,pKd,[7],7.14
same,pKd,[8],≤ 4.70
same,pKd,[9],≤ 4.70
same,pKd,[10],≤ 4.70
same,pKd,[11],≤ 4.70
same,pKd,[12],≤ 4.70
same,pKd,[13],≤ 4.70
same,pKd,[14],≤ 4.70
IEFIEVVRL,pKd,[1]; [40],≤ 4.70
same,pKd,[15]; [40],7.42
same,pKd,[16],≤ 4.70
same,pKd,[17],≤ 4.70
same,pKd,[18],≤ 4.70
same,pKd,[19],≤ 4.70
same,pKd,[20],≤ 4.70
same,pKd,[21],≤ 4.70
same,pKd,[22],≤ 4.70
same,pKd,[23],≤ 4.70
same,pKd,[24],≤ 4.70
same,pKd,[25],≤ 4.70
same,pKd,[26],≤ 4.70
same,pKd,[27],≤ 4.70
same,pKd,[28],≤ 4.70
same,pKd,[29],≤ 4.70
same,pKd,[30],≤ 4.70
LEARVNLSV,pKd,[1]; [39],≤ 4.70
same,pKd,[15]; source organism: Sudan ebolavirus - Maleo (1979),5.63
same,pKd,[31],≤ 4.70
same,pKd,[3],≤ 4.70
same,pKd,[4],≤ 4.70
same,pKd,[5],≤ 4.70
same,pKd,[6],≤ 4.70
same,pKd,[32],≤ 4.70
same,pKd,[9],≤ 4.70
same,pKd,[33],≤ 4.70
same,pKd,[34],≤ 5.30
same,pKd,[35],≤ 4.70
same,pKd,[36],≤ 5.30
same,pKd,[37],≤ 5.30
same,pKd,[38],≤ 4.70
same,pKd,[10],≤ 4.70
same,pKd,[11],≤ 4.70
same,pKd,[12],≤ 4.70
same,pKd,[13],≤ 4.70
same,pKd,[14],≤ 4.70
